Results on two molecules are retold here after publication doi:10.1101/2020.07.09.195057 (bioRxiv, 2020).

The target of one data set is T1, Dcp1/Dcp2core (Schizosaccharomyces pombe, UniProt Q9P805;O13828 1-127;1-243).
T1 sequence 1: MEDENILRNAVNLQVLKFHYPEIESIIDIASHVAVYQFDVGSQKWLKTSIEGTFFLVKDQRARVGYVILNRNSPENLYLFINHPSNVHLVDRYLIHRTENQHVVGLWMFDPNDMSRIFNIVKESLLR
T1 sequence 2: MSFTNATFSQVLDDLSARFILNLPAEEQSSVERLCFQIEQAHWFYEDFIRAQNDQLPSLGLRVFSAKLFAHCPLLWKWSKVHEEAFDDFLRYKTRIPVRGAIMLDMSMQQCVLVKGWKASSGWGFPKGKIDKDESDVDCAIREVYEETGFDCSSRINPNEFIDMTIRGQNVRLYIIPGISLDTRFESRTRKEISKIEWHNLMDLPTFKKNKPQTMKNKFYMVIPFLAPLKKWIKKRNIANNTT
The experiment in a line: fluorescence polarization.

Another data set addresses T2, Dcp1(1-127) (S. pombe, UniProt Q9P805 1-127, perdeuterated background, 1H/13C-labelled ILVMA terminal methyl groups).
T2 sequence (looked up): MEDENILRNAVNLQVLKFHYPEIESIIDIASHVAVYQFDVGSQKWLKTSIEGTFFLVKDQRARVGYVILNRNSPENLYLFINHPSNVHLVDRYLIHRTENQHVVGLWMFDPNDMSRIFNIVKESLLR
The experiment in a line: co-purification.

In the case of UUUUUUUUUUUUUUUUUUUUUUUUUUUUUU (ssRNA, 5' phosphate) [30U RNA], in the data set with Dcp1/Dcp2core, the binding result is recorded as “binds”.

B1: Dcp2(1-504)_(eSrtA), sortase-ligated Dcp2ext with C-terminal StrepII (domain or fragment, S. pombe)
chain: MSFTNATFSQVLDDLSARFILNLPAEEQSSVERLCFQIEQAHWFYEDFIRAQNDQLPSLGLRVFSAKLFAHCPLLWKWSKVHEEAFDDFLRYKTRIPVRGAIMLDMSMQQCVLVKGWKASSGWGFPKGKIDKDESDVDCAIREVYEETGFDCSSRINPNEFIDMTIRGQNVRLYIIPGISLDTRFESRTRKEISKIEWHNLMDLPTFKKNKPQTMKNKFYMVIPFLAPLKKWIKKRNIANNTTKEKNISVDVDADASSQLLSLLKSLPETGGGATPQPSTFPQPPVESHSSFDIKQKILHLLNEGNEPKSPIQLPPVSNLPLNPPIQSSNSRLSHDNNSFDPFAYLGLDPKNPSASFPRVVSQNNMLTNKPVLNNHFQQSMYSNLLKDQNSVQHLFAASDMPSPMELPSPSTVYHQVFYPPTSTSVSSYGLGKTPQPAYGSSSPYVNGHQTQQISSLPPFQSQTQFLARNSDNSGQSYNSEGDSNSKRLLSMLSQQDTTPSSST
modifications: residues 1-266 perdeuterated with 1H/13C-labelled ILVMA terminal methyl groups; 274-504 unlabelled
In the case of B1, the binding result in the data set with Dcp1(1-127) is “binds”.
